This note sets out measurements from article PMC4124035 (Nature structural & molecular biology, 2014).

Numbering of substitutions follows the chain as printed. Names and notes keep the numbering of the source. Read-outs that look alike come from different tables or passages of the source. A value given as a limit tells only on which side of the number the result lay.

In experiment [1] the target is RPRD1B CTD interaction domain (CID), residues 2-135 (human) (UniProt Q9NQG5). The experiment is described as follows: ITC.
Experiment [2] has as its target RPRD2 CTD interaction domain (CID), residues 15-161 (human) (UniProt Q5VT52). The experiment is described as follows: ITC.
In experiment [3] the target is RPRD1A CTD interaction domain (CID), residues 2-137 (human) (UniProt Q96P16). The experiment is described as follows: ITC. Background: ITC needs no label: the signal is the heat of the interaction.
The test system of experiment [4] is RPAP2. The experiment is described as follows: Phosphatase assay with pNPP substrate. In kind it is biochemical, human. Conditions: unpublished data.
The test system of the next experiment is RPAP2 (1-334). Nature of the experiment: In vitro DiFMUP phosphatase assay. In kind it is biochemical, human. The settings on record: 10 μM DiFMUP, 50 mM 3,3-dimethylglutaric acid pH 6.5, 37°C, fluorescence every 20 min for 2 hours.
Experiment [5] deals with RPRD1B coiled-coil domain (human) (UniProt Q9NQG5). The experiment is described as follows: AUC.
For experiment [6] the target is unchanged. The experiment is described as follows: AUC. The source holds these as a separate data set.
The target in experiment [7] is RPRD1B coiled-coil domain (solution experiments) (human) (UniProt Q9NQG5). The experiment is described as follows: AUC.
The subject of experiment [8] is RPAP2. Nature of the experiment: In vitro phosphatase ELISA on biotinylated CTD peptides. The experiment is classed as biochemical, human. Conditions: Supplementary Fig. 4d.
The target of another experiment is T1, RPRD1A CID (Homo sapiens, UniProt Q96P16).
T1 sequence (Q96P16 2-137): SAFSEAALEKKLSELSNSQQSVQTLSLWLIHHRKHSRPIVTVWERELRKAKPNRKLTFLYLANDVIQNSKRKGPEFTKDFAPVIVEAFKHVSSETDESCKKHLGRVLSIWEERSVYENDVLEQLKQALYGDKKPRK
The experiment is described as follows: ITC binding of CTD peptides to RPRD1A CID. The settings on record: ratio of Kd values of Table 1.

A further experiment deals with T2, RPRD1B CID (Homo sapiens, UniProt Q9NQG5).
T2 sequence (Q9NQG5 2-135): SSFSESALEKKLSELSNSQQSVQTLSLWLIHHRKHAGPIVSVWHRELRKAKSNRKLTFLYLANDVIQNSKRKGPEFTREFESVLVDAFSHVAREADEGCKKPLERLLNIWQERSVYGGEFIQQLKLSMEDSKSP
The experiment is described as follows: ITC binding of CTD peptides to RPRD1B CID. Conditions: ratio of Kd values of Table 1.

The target of a further experiment is T3, RPRD2 CID (Homo sapiens, UniProt Q5VT52).
T3 sequence (Q5VT52 15-161): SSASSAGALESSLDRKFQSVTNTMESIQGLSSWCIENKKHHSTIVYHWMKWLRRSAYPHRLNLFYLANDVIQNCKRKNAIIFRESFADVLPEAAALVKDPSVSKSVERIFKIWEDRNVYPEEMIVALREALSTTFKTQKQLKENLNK
The experiment is described as follows: ITC binding of CTD peptides to RPRD2 CID. The settings on record: ratio of Kd values of Table 1.

A further experiment concerns the target T4, RPRD1A CID R106A (human, UniProt Q96P16 2-137, R106A).
T4 sequence: T1 sequence (Q96P16 2-137) with R105A
The experiment is described as follows: ITC.

Broadly, the Kd is the equilibrium constant for the complex coming apart. S2,5P CTD peptide: the Kd in experiment [1], in experiment [2] and in [3] was > 1000 µM throughout. On to `O=[N+]([O-])c1ccc(OP(=O)(O)O)cc1` [pNPP, para-nitrophenylphosphate], for which the “phosphatase activity of RPAP2 on the substrate” value with RPAP2 [4] is “No measurable phosphatase activity”. For S2,7P CTD peptide, the fold increase of affinity compared to S2P alone is 2.6 fold in [1] and 1.6 fold in [3].

For `Cc1cc(=O)oc2c(F)c(OP(=O)(O)O)c(F)cc12` [DiFMUP, 6,8-difluoro-4-methylumbelliferyl phosphate], the “dephosphorylation of the substrate by RPAP2 (1-334)” value with RPAP2 (1-334) is “dephosphorylated DiFMUP in a time- and dose-dependent manner”. As for S5P CTD peptide, the Kd in [1], in experiment [2] and in experiment [3] was > 1000 µM throughout. Usually stoichiometry N stands for the number of molecules, sites or subunits per partner or assembly. For “RPRD1B coiled-coil domain (from UniProt Q9NQG5 137-326) (domain or fragment)”, the stoichiometry N in [5] and in experiment [6] was 2 each time. In [7], “RPRD1B coiled-coil domain (solution experiments) (from UniProt Q9NQG5 137-326) (domain or fragment)” registered a percent dimer of 89.6%.

Regarding `[O]=[V]([O-])([O-])[O-]` [vanadate], the “inhibition of RPRD1A-dependent S5 dephosphorylation by RPAP2” value in the experiment with RPAP2 [8] is listed as “inhibited”. For the molecule `C[C@@H](O)[C@H](NC(=O)[C@@H]1CCCN1C(=O)[C@H](COP(=O)(O)O)NC(=O)[C@H](Cc1ccc(O)cc1)NC(=O)[C@H](COP(=O)(O)O)NC(=O)[C@@H]1CCCN1C(=O)[C@H](CO)NC(=O)[C@@H](NC(=O)[C@@H]1CCCN1C(=O)[C@H](COP(=O)(O)O)NC(=O)[C@H](Cc1ccc(O)cc1)NC(=O)[C@H](CO)NC(=O)[C@@H]1CCCN1C(=O)[C@@H](N)CO)[C@@H](C)O)C(=O)N[C@@H](CO)C(=O)N1CCC[C@H]1C(=O)N[C@@H](COP(=O)(O)O)C(=O)N[C@@H](Cc1ccc(O)cc1)C(=O)N[C@@H](CO)C(=O)O` [S2,7P CTD], on RPRD1A CID, the “fold increase of RPRD1A CID affinity compared to S2P CTD” value was 1.6 fold. Moreover, on RPRD1B CID, the “fold increase of RPRD1B CID affinity compared to S2P CTD” value came out at 2.6 fold. Moreover, the “fold increase of RPRD2 CID affinity compared to S2P CTD” value at RPRD2 CID is listed as “remained unchanged”.

For the molecule S5,7P CTD peptide, the dissociation constant Kd in experiment [1], in [2] and in experiment [3] was > 1000 µM each time. With SPSYSPTSPSYSPTSPSYS [19-mer S2P CTD peptide], in the experiment with RPRD1A CID R106A, the “fold reduction of binding against wild type” value is ~27 fold.
